Laboratory results taken from PMC8175363.

Target: unspliced Pyrococcus horikoshii PolII intein fusion protein NIHPho (N-extein M-H-A-A-K-R-N, 166-residue intein, C-extein C-D-G-D-E-D-His6) (Pyrococcus horikoshii) (UniProt O57861)
Assay: crystal structure; sitting drop vapour diffusion; protein about 3 mg/ml in 20 mM Tris pH 8.0, 100 mM NaCl; reservoir 0.1 M Tris HCl pH 8.5, 1.8 M ammonium sulfate, 0.1 M sodium chloride, 1% glycerol; data at 100 K; phased by SAD with the Se-Met derivative

stoichiometry N: 2
Substance: unspliced Pyrococcus horikoshii PolII intein fusion protein NIHPho (N-extein M-H-A-A-K-R-N, 166-residue intein, C-extein C-D-G-D-E-D-His6) (from UniProt O57861 945-1123) (domain or fragment)
